Test results taken from the supplement of paper PMC9732359.
± gives the uncertainty stated by the source.

Assay: protein stability index of a GFP-peptide fusion (yeast GPS) (PSI 1-4); higher = more stable; sorted into four equal gates, so the index is relative within each strain
Outline: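 Tiled 17-residue yeast protein peptides were fused downstream of GFP in a plasmid that also expresses Cherry, and the pooled library was carried in yeast. Mid-log cultures in leucine-free medium were sorted into four equal gates by GFP/Cherry fluorescence ratio, and plasmids from each gate were PCR-amplified and Illumina-sequenced, with reads assigned to strains by barcodes. The protein stability index for each peptide was each gate's read frequency times its gate number, summed.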

Sequence | protein stability index (doa10∆) | protein stability index (pdr5∆) | protein stability index (san1∆) | protein stability index (ubr1∆)
ANLVNKESDLLEETRTT [BRN1] | 3.06 ± 0.18 | 3.51 ± 0.17 | 3.31 ± 0.098 | 3.26 ± 0.077
AGHVSGVITVHNVFSKE [RPN14] | 1.85 ± 0.15 | 1.75 ± 0.14 | 2.92 ± 0.077 | 2.79 ± 0.13
EKFDLERVTALKNCKIS [SMC1] | 3.44 ± 0.2 |  | 3.38 ± 0.11 | 
HIVYSLLVNPDIDLETY [YML103C/NUP188] | 2.52 ± 0.049 | 2.34 ± 0.042 | 2.52 ± 0.062 | 2.45 ± 0.035
KPQFENHVKQFYERLDK [MED11] | 2.87 ± 0.12 | 2.46 ± 0.19 | 2.57 ± 0.088 | 2.17 ± 0.17
EYIDDHRSGKIVVQLNG [RPS22A] | 3.21 ± 0.23 | 3.28 ± 0.17 | 2.77 ± 0.13 | 2.47 ± 0.23
PLLSKKERLVRDKKEKK [SMB1] | 3.37 ± 0.24 | 3 ± 0.11 | 2.72 ± 0.18 | 3.15 ± 0.17
EDEGTLNVAEIITSGRD [ARP9] | 3.27 ± 0.22 | 3.21 ± 0.15 | 3.24 ± 0.079 | 3.29 ± 0.15
QNYLKTYNEDIPVEILV [PRE9] | 2.79 ± 0.066 | 2.05 ± 0.084 | 2.76 ± 0.091 | 2.38 ± 0.071
MSPNHGTFGGDGMYSES [FAS2] | 1.87 ± 0.075 | 2.34 ± 0.064 | 2.8 ± 0.14 | 2.43 ± 0.064
KRNGSTLEQKVNLENPI [FAS1] | 2.2 ± 0.098 | 2.37 ± 0.12 | 2.21 ± 0.11 | 3.09 ± 0.089
LEKGNNPSVKQGEVGAV [SWP82] | 2.89 ± 0.076 | 3.13 ± 0.083 | 3.44 ± 0.052 | 2.7 ± 0.074
TFSPSGKLGQIDYALTA [PRE8] | 2.61 ± 0.14 | 2.26 ± 0.092 | 2.67 ± 0.12 | 2.85 ± 0.064
LFGNNAGNTTTGGGLFG [YGL172W/NUP49] | 2.95 ± 0.18 | 3.37 ± 0.25 |  | 3.36 ± 0.17
TMLITGQRPDRATTYEK [SIN4] | 3.06 ± 0.11 | 3.09 ± 0.15 | 3.25 ± 0.07 | 3.22 ± 0.05
GLQDEIMKIGGIKLQMQ [SMC4] | 2.8 ± 0.071 | 3.13 ± 0.053 | 3.02 ± 0.058 | 3.17 ± 0.089
VLDIVPGSSITETEVER [SRB4] | 3.04 ± 0.13 | 2.88 ± 0.15 | 2.57 ± 0.18 | 2.83 ± 0.12
VGVSHTNEEVRNMAEEF [CYT1] | 2.85 ± 0.13 | 2.35 ± 0.07 | 2.01 ± 0.13 | 2.22 ± 0.043
TNVIAFAFWNLLVKFIK [YLR018C/POM34] | 1.42 ± 0.092 | 1.39 ± 0.084 | 1.29 ± 0.16 | 1.48 ± 0.042
NVEKYPTFVEFILIPLY [SNU114] | 2.33 ± 0.052 | 2.46 ± 0.054 | 2.04 ± 0.069 | 2.65 ± 0.053
FQIVIEPLAIALSMGKS [ARP7] | 1.42 ± 0.054 | 1.71 ± 0.059 | 1.52 ± 0.092 | 1.5 ± 0.07
PGGYFIVNGTEKVILVQ [RET1] | 1.63 ± 0.12 | 1.67 ± 0.1 | 1.28 ± 0.13 | 2.48 ± 0.13
IQEFQGNPYIELNQDRL [SNF5] | 3.13 ± 0.059 | 3.15 ± 0.07 | 3.24 ± 0.06 | 3.23 ± 0.04
KELNTERQIFLEACIVR [CDC53] | 2.09 ± 0.048 | 2.23 ± 0.072 | 2.5 ± 0.056 | 2.57 ± 0.047
NNYNSRIQLMNDFTTKL [MED1] | 2.89 ± 0.075 | 2.85 ± 0.075 | 2.98 ± 0.058 | 3.08 ± 0.059
KALDELKPEIEKLTSKS [LRP1] | 2.86 ± 0.089 | 2.93 ± 0.077 | 2.93 ± 0.068 | 2.74 ± 0.066
KQLTLLRSKLFQFKLLQ [SMC4] | 1.93 ± 0.051 | 1.88 ± 0.048 | 1.69 ± 0.064 | 2.34 ± 0.038
